The target of the data set is ∆14-PrfaH (IncX3 plasmid pHNYX644 …, UniProt A0A0C5EQ24 1-155). Kind of data set: EMSA.

The record followed here is article PMC11880322.

TCTGATTCGGGGTCATCCGAGTCGAGAGAGAAACTG (ssDNA) [ss-W11]: the binding result is “binds”.
The entry for AAAGATTCGGGGTCATCCGAGTCGAGAGAGCGCCTG (ssDNA) [ss-W1] is “binds”; for TCTGATTCGGGGTCATCCGAGTCGAAAGAGCGCCTG (ssDNA) [ss-W9] it is “binds”; for TCTGATTCGGGGTCATCCGAGTCGAGAGAGCGCAAA (ssDNA) [ss-W12] it is “binds”.
As for TCTGATTCGGGGTCATCCGAGTCGAGAAAACGCCTG (ssDNA) [ss-W10], the binding result is on record as “binds”.
The entry for TCTAAATCGGGGTCATCCGAGTCGAGAGAGCGCCTG (ssDNA) [ss-W2] is “binds”.
